Drawing on article PMC8694188, “EPSP Synthase-Depleted Cells Are Aromatic Amino Acid Auxotrophs in Mycobacterium smegmatis” (Microbiology Spectrum, 2021), this text covers Km, kcat and kcat/Km for four proteins.

A word on the Km: it is the substrate concentration at which the rate is half of its maximum. The term kcat denotes the maximal rate divided by the concentration of active sites. For orientation: kcat/Km means the second-order rate constant that governs catalysis at low substrate concentration.

Substrate in the series: C=C(OP(=O)(O)O)C(=O)O
In words: continuous coupled spectrophotometric Pi release assay (MtPNP / MESG). As to conditions: apparent constant, PEP varied at fixed-saturating S3P, 100 mM Tris-HCl pH 7.8, 25°C. Type of series: biochemical, Mycolicibacterium smegmatis. From the text:
continuous coupled spectrophotometric Pi release assay (MtPNP / MESG) on MsEPSPS

B1: MsEPSPS (Mycolicibacterium smegmatis MC2 155) (protein)
chain: MSARADEEQKPHWAAPSTTAPVDATVTVPGSKSLTNRALILAALATSQGTSTISGALRSRDTDLMIEAIRTLGVTVDISAADPTELTVHGSIEPATDATVDCGLAGTVLRFVPPVAALSRSSVTFDGDEQARSRPIAPLLDGLRRLGVRLDGDGLPFTVRGTGTVSGGTVEIDASGSSQFVSGLLLSGAGFENGLTIVHTGVSVPSAPHVAMTVAMLRDAGVEVDDSVANRWQVNPGPVAARSWNIEPDLSNSTPFLAAALVTGGTVRIAGWPTVSIQPADTILELLATVGGSVREADGHLEVTGAHEYGGFEADLHDVGELAPTVAALAALAKEGSTSQLRGIAHLRGHETDRLAALTTEINGLGGDCRETDDGLLITARPLHGGTWRSYADHRMATAGAIVGLRVPGVVVENIETTAKTLPDFPSMWVDMLAGEPGRNQQR
notes: full-length WT aroA in pET-23a(+) (NdeI/HindIII), expressed in E. coli; no tag evident (native stop codon in reverse primer, ion-exchange and hydrophobic purification); apparent mass 46 kDa on SDS-PAGE
As for B1, the Km came out at 88 ± 11 µM, the kcat was found to be 0.553 ± 0.0185 s⁻¹ and the kcat/Km is 6280 M⁻¹ s⁻¹.

B2: MsEPSPS (Mycolicibacterium smegmatis MC2 155; D61W) (protein)
chain: MSARADEEQKPHWAAPSTTAPVDATVTVPGSKSLTNRALILAALATSQGTSTISGALRSRWTDLMIEAIRTLGVTVDISAADPTELTVHGSIEPATDATVDCGLAGTVLRFVPPVAALSRSSVTFDGDEQARSRPIAPLLDGLRRLGVRLDGDGLPFTVRGTGTVSGGTVEIDASGSSQFVSGLLLSGAGFENGLTIVHTGVSVPSAPHVAMTVAMLRDAGVEVDDSVANRWQVNPGPVAARSWNIEPDLSNSTPFLAAALVTGGTVRIAGWPTVSIQPADTILELLATVGGSVREADGHLEVTGAHEYGGFEADLHDVGELAPTVAALAALAKEGSTSQLRGIAHLRGHETDRLAALTTEINGLGGDCRETDDGLLITARPLHGGTWRSYADHRMATAGAIVGLRVPGVVVENIETTAKTLPDFPSMWVDMLAGEPGRNQQR
notes: as for B1
B2: the Km was 1,014 ± 975 μM, the kcat was 0.107 ± 0.0608 s⁻¹ and the kcat/Km came out at 106 M⁻¹ s⁻¹.

B3: MsEPSPS (Mycolicibacterium smegmatis MC2 155; E321N) (protein)
chain: MSARADEEQKPHWAAPSTTAPVDATVTVPGSKSLTNRALILAALATSQGTSTISGALRSRDTDLMIEAIRTLGVTVDISAADPTELTVHGSIEPATDATVDCGLAGTVLRFVPPVAALSRSSVTFDGDEQARSRPIAPLLDGLRRLGVRLDGDGLPFTVRGTGTVSGGTVEIDASGSSQFVSGLLLSGAGFENGLTIVHTGVSVPSAPHVAMTVAMLRDAGVEVDDSVANRWQVNPGPVAARSWNIEPDLSNSTPFLAAALVTGGTVRIAGWPTVSIQPADTILELLATVGGSVREADGHLEVTGAHEYGGFEADLHDVGNLAPTVAALAALAKEGSTSQLRGIAHLRGHETDRLAALTTEINGLGGDCRETDDGLLITARPLHGGTWRSYADHRMATAGAIVGLRVPGVVVENIETTAKTLPDFPSMWVDMLAGEPGRNQQR
notes: as for B1
With B3, the Km was 3,081 ± 808 μM, the kcat is 0.438 ± 0.0469 s⁻¹ and the kcat/Km came out at 142 M⁻¹ s⁻¹.

B4: MsEPSPS (Mycolicibacterium smegmatis MC2 155; R134A) (protein)
chain: MSARADEEQKPHWAAPSTTAPVDATVTVPGSKSLTNRALILAALATSQGTSTISGALRSRDTDLMIEAIRTLGVTVDISAADPTELTVHGSIEPATDATVDCGLAGTVLRFVPPVAALSRSSVTFDGDEQARSAPIAPLLDGLRRLGVRLDGDGLPFTVRGTGTVSGGTVEIDASGSSQFVSGLLLSGAGFENGLTIVHTGVSVPSAPHVAMTVAMLRDAGVEVDDSVANRWQVNPGPVAARSWNIEPDLSNSTPFLAAALVTGGTVRIAGWPTVSIQPADTILELLATVGGSVREADGHLEVTGAHEYGGFEADLHDVGELAPTVAALAALAKEGSTSQLRGIAHLRGHETDRLAALTTEINGLGGDCRETDDGLLITARPLHGGTWRSYADHRMATAGAIVGLRVPGVVVENIETTAKTLPDFPSMWVDMLAGEPGRNQQR
notes: as for B1
As for B4, the Km was 3,676 ± 1,007 μM, the catalytic constant (kcat) is 0.184 ± 0.033 s⁻¹ and the catalytic efficiency (kcat/Km) was found to be 50.1 M⁻¹ s⁻¹.
